# Test results published in PMC7382273, “Rubisco accumulation factor 1 (Raf1) plays essential roles in mediating Rubisco assembly and carboxysome biogenesis” (Proceedings of the National Academy of Sciences of the …, 2020).
# Biological target: the molecule itself
# Assay: cryo-EM structure; RbcL-Raf1 supercomplex co-expressed with GroES/EL in E. coli, purified by Ni-IMAC and Superdex 200; 1.2 mg/mL on Quantifoil grids; 200 kV Tecnai F20; 16,022 particles; 4.28 Å
protein,measurement,value
"Rubisco accumulation factor 1 (Raf1) (Synechococcus elongatus PCC7942), recombinant (natural protein, UniProt Q31Q05 1-356, looked up, Raf1, Rubisco accumulation (assembly) factor 1, Synechococcus elongatus PCC7942, gene synpcc7942_0833 amplified from genomic DNA; N-terminal α-helical domain (Raf1α), flexible linker, C-terminal β-sheet dimerization domain (Raf1β); Only the Raf1α domains are modelled in PDB 6SMH; Raf1β could not be resolved; Four Raf1 dimers (eight chains) sit on one RbcL8 core; also called Rubisco assembly …) MREFTPTTLSEEERQELLGQLRRKEGRWLAWARACQTLLKNGLNPQTLFEATGFEPIQQNQITVAMQVYDSILRQDPPAHVRETYQEWGSDLLYELRELDQEQRSLCAQLALERKLDADQIREVAKATKDFCRLPKQPENFDRHPGDAVAHQCWRLAQERTDLTERSRLIARGLQFAQSAGARALIEALLLDLSGVPSRKPPMLPIYRLETEEDLPRLLPFAGTLPLSSSQIEAIAAVEAEGPFGLVSSPQGQQWLALPGWQAILTAEDPIACLEQIDRLPNAPEGPTEAVVLVVDRADRDWDADHFFLVEQAEGARIQWSPSAIAAPILGRLVLILRPKRVLDEAAIATPWQFEE",stoichiometry N,2
"Rubisco large subunit RbcL (Synechococcus elongatus PCC7942), recombinant, in the RbcL-Raf1 supercomplex (natural protein, UniProt Q31NB3 1-472, looked up, RbcL, large subunit of ribulose-1,5-bisphosphate carboxylase/oxygenase, Synechococcus elongatus PCC7942, gene synpcc7942_1426 amplified from genomic DNA; The complex was captured on Ni-IMAC as a 'His-fusion complex'; also called RbcL8; RbcL8 core; source: E. coli BL21 DE3, co-expressed with Raf1 (pET19b-RbcL-Raf1) and GroES/EL, purified as a complex (Ni-IMAC, Superdex 200)) MPKTQSAAGYKAGVKDYKLTYYTPDYTPKDTDLLAAFRFSPQPGVPADEAGAAIAAESSTGTWTTVWTDLLTDMDRYKGKCYHIEPVQGEENSYFAFIAYPLDLFEEGSVTNILTSIVGNVFGFKAIRSLRLEDIRFPVALVKTFQGPPHGIQVERDLLNKYGRPMLGCTIKPKLGLSAKNYGRAVYECLRGGLDFTKDDENINSQPFQRWRDRFLFVADAIHKSQAETGEIKGHYLNVTAPTCEEMMKRAEFAKELGMPIIMHDFLTAGFTANTTLAKWCRDNGVLLHIHRAMHAVIDRQRNHGIHFRVLAKCLRLSGGDHLHSGTVVGKLEGDKASTLGFVDLMREDHIEADRSRGVFFTQDWASMPGVLPVASGGIHVWHMPALVEIFGDDSVLQFGGGTLGHPWGNAPGATANRVALEACVQARNEGRDLYREGGDILREAGKWSPELAAALDLWKEIKFEFETMDKL",stoichiometry N,8
